Drawing on patent US11912777 (NANJING LEADS BIOLABS, dated 2024), this text covers EC50 for 1 molecule.

The assay has as its target T1, cynomolgus monkey TNFR2 expressed on the cell surface of 293T cells (cynomolgus monkey, UniProt P20333 23-283 (human entry)).
T1 construct: the entry ends shortly after the transmembrane stretch and includes the signal peptide; also called CynoTNFR2; cynomolgus TNFR2 on cell surface
T1 chain: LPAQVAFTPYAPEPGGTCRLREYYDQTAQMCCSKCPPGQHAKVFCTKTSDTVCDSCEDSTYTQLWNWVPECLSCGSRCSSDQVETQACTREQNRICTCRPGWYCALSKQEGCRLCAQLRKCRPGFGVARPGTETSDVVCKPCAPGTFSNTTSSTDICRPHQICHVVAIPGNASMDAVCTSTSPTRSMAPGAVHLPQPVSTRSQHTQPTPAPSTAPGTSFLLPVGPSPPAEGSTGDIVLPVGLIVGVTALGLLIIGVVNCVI
As to the kind of experiment: flow cytometry on 293T cells expressing cynomolgus TNFR2; left panel; unit from the axis. On the technique in general: Flow cytometry measures light scatter and fluorescence of single cells or particles in a stream.

B1: humanized antibody hu3-E (Hu3-H3/Hu3-L1) (antibody, human IgG1, kappa, V domains shown)
VH: QIQLVQSGAEVKKPGASVKVSCKASGYTFTTYGMSWVRQAPGQGLEWMGWIHTYSGVPTYADDFKGRFAFTLDTSTSTAYMELRSLRSDDTAVYYCARGLYGVDYWGQGTLVTVSS
VL: EIVMTQSPATLSLSPGERATLSCKASENVVTYVSWYQQKPGQAPRLLIYGASNRYTGIPARFSGSGSATDFTLTISSLQPEDFAVYYCGQSYTYPYTFGQGTKLEIKR
notes: Humanized form of 43B7A4, human IgG1/kappa
As for B1, the 50% effective concentration (EC50) (usually the concentration that produces a half-maximal response) was 0.671 nM.
